Data from patent US20090149339A1 (published 2009).
Ends that are not written are not given here. * marks the point of attachment. Biotin = O=C1N[C@H]2[C@H](CS[C@H]2CCCCC(=O)*)N1

Legend:
[1] = target: T1, GST-TIAM1 PDZ domain fusion protein (T-lymphoma invasion and metastasis inducing protein 1 AA1001-1088); PDZ 1 … (UniProt P08515 1-218 = GST); test: A assay
[2] = target: T2, GST-PSD95 PDZ domain fusion protein (human post-synaptic density protein 95 AA387-724; PDZ domains 1-3 of 3) (human, UniProt P08515 1-218 = GST); test: A/G assays
[3] = target: T3, GST-KIAA0559 PDZ domain fusion protein (KIAA0559 AA766-870; PDZ1 of 1) (UniProt P08515 1-218 = GST); test: A/G assays
T3 construct: also called K559

[4] = target: GST-LIMK2 PDZ domain fusion protein (human LIM domain kinase 2 AA185-275; PDZ domain 1 of 1) (human, UniProt P08515 1-218 = GST); test: A/G assays
[5] = target: T4, GST-KIAA0316 PDZ domain fusion protein (KIAA0316 AA197-284; PDZ domain 1 of 1) (UniProt P08515 1-218 = GST); test: A/G assays
T4 construct: also called K316

[6] = target: T5, GST-TAX2 PDZ domain fusion protein (human tax interaction protein 2 AA54-140; PDZ domain 1 of 1) (human, UniProt P08515 1-218 = GST); test: A/G assays
T5 construct: also called TX 2

[7] = target: T6, GST-RGS12 PDZ domain fusion protein (human regulator of G-protein signalling 12 AA35-103; PDZ domain 1 of 1) (human, UniProt P08515 1-218 = GST); test: A/G assays
T6 construct: also called RSG12

[8] = target: T7, GST-TAX33 PDZ domain fusion protein (tax interaction protein 33 AA73-162; PDZ domain 1 of 1) (UniProt P08515 1-218 = GST); test: A/G assays
T7 construct: also called TX33

[9] = target: T8, GST-MPP2 PDZ domain fusion protein (maguk p55 subfamily member 2 (DLG2) AA185-273; PDZ domain 1 of 1) (UniProt P08515 1-218 = GST); test: A/G assays
T8 construct: also called MMP2

[10] = target: GST-AF6 PDZ domain fusion protein (af-6 protein AA985-1077; PDZ domain 1 of 1) (UniProt P08515 1-218 = GST); test: A/G assays
[11] = target: GST-prIL16 PDZ domain fusion protein (putative interleukin 16 precursor AA170-383; PDZ domains 1-2 of 2) (UniProt P08515 1-218 = GST); test: A/G assays
[12] = target: T9, GST-NeDLG PDZ domain fusion protein (presynaptic protein sao102, neuroendocrine-dlg; PDZ domains 1-2 of 3) (UniProt P08515 1-218 = GST); test: A/G assays
T9 construct: also called NeDLG1

[13] = target: GST-NOS1 PDZ domain fusion protein (human neuronal nitric oxide synthase; PDZ domain 1 of 1) (human, UniProt P08515 1-218 = GST); test: A/G assays
[14] = target: GST-LIM PDZ domain fusion protein (Human LIM protein AA29-112; PDZ domain 1 of 1) (human, UniProt P08515 1-218 = GST); test: A/G assays
[15] = target: T10, GST-KIAA0303 PDZ domain fusion protein (KIAA0303 AA652-742; PDZ domain 1 of 1) (UniProt P08515 1-218 = GST); test: A/G assays
T10 construct: also called K303

[16] = target: GST-DVL1 PDZ domain fusion protein (human dishevelled segment polarity protein homolog AA248-340); PDZ domain … (human, UniProt P08515 1-218 = GST); test: A/G assays
[17] = target: T11, GST-TAX43 PDZ domain fusion protein (human tax interaction protein 43 AA15-85; PDZ domain 1 of 1) (human, UniProt P08515 1-218 = GST); test: A/G assays
T11 construct: also called TX 43

[18] = target: T12, GST-CBP PDZ domain fusion protein (Cytohesin binding protein HE AA85-175; PDZ domain 1 of 1) (UniProt P08515 1-218 = GST); test: A/G assays
T12 construct: also called Prot

[19] = target: GST-MINT3 PDZ domain fusion protein (human MINT3 AA11-52; PDZ domain 1 of 1) (human, UniProt P08515 1-218 = GST); test: A/G assays
[20] = target: GST-MPP1 PDZ domain fusion protein (55 Kd erythrocyte membrane protein AA101-186; PDZ domain 1 of 1) (UniProt P08515 1-218 = GST); test: A/G assays
[21] = target: GST-PTN-4 PDZ domain fusion protein (protein-tyrosine phosphatase meg1 AA774-862; PDZ domain 1 of 1) (UniProt P08515 1-218 = GST); test: A/G assays
[22] = target: T13, GST-SYN1a PDZ domain fusion protein (alpha1-syntrophin AA96-189; PDZ domain 1 of 1) (UniProt P08515 1-218 = GST); test: A/G assays
T13 construct: also called SYN 1 alpha; SYNTR 1 alpha

[23] = target: T14, GST-TAX40 PDZ domain fusion protein (human tax interaction protein 40 AA35-137; PDZ domain 1 of 1) (human, UniProt P08515 1-218 = GST); test: A/G assays
T14 construct: also called TX 40

[24] = target: T15, GST-41.8 kD PDZ domain fusion protein (hypothetical 41.8 kD protein AA4-85; PDZ domain 1 of 1) (UniProt P08515 1-218 = GST); test: A and G assays
T15 construct: also called hypoth

[25] = target: T2, GST-PSD95 PDZ domain fusion protein …; test: A assay
[26] = target: T9, GST-NeDLG PDZ domain fusion protein …; test: A assay
[27] = target: T15, GST-41.8 kD PDZ domain fusion protein …; test: A/G assays
[28] = target: T1, GST-TIAM1 PDZ domain fusion protein …; test: A/G assays
[29] = target: T16, GST-CASK PDZ domain fusion protein (CASK AA495-584; PDZ domain 1 of 1) (mouse, UniProt P08515 1-218 = GST); test: A/G assays
T16 construct: also called mCASK

[30] = target: T8, GST-MPP2 PDZ domain fusion protein …; test: G assay
[31] = target: T15, GST-41.8 kD PDZ domain fusion protein …; test: A assay
[32] = target: T9, GST-NeDLG PDZ domain fusion protein …; test: A and G assays

T3 sequence (P08515 1-218, tags or fused parts left off): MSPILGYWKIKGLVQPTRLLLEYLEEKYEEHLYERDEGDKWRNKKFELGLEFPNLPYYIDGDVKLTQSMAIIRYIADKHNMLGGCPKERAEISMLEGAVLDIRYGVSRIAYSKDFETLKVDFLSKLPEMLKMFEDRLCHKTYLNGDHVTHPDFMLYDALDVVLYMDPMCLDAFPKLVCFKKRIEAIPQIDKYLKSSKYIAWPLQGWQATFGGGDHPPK
T4 sequence (P08515 1-218, tags or fused parts left off): as above
Sequence of GST-PTN-4 PDZ domain fusion protein (protein-tyrosine phosphatase meg1 AA774-862; PDZ domain 1 of 1) (P08515 1-218, tags or fused parts left off): as above
T12 sequence (P08515 1-218, tags or fused parts left off): as above
T11 sequence (P08515 1-218, tags or fused parts left off): as above
T13 sequence (P08515 1-218, tags or fused parts left off): as above
T6 sequence (P08515 1-218, tags or fused parts left off): as above
T2 sequence (P08515 1-218, tags or fused parts left off): as above
T8 sequence (P08515 1-218, tags or fused parts left off): as above
Sequence of GST-DVL1 PDZ domain fusion protein (human dishevelled segment polarity protein homolog AA248-340); PDZ domain … (P08515 1-218, tags or fused parts left off): as above
T1 sequence (P08515 1-218, tags or fused parts left off): as above
Sequence of GST-LIMK2 PDZ domain fusion protein (human LIM domain kinase 2 AA185-275; PDZ domain 1 of 1) (P08515 1-218, tags or fused parts left off): as above
Sequence of GST-MINT3 PDZ domain fusion protein (human MINT3 AA11-52; PDZ domain 1 of 1) (P08515 1-218, tags or fused parts left off): as above
Sequence of GST-LIM PDZ domain fusion protein (Human LIM protein AA29-112; PDZ domain 1 of 1) (P08515 1-218, tags or fused parts left off): as above
Sequence of GST-NOS1 PDZ domain fusion protein (human neuronal nitric oxide synthase; PDZ domain 1 of 1) (P08515 1-218, tags or fused parts left off): as above
T14 sequence (P08515 1-218, tags or fused parts left off): as above
T15 sequence (P08515 1-218, tags or fused parts left off): as above
T16 sequence (P08515 1-218, tags or fused parts left off): as above
Sequence of GST-prIL16 PDZ domain fusion protein (putative interleukin 16 precursor AA170-383; PDZ domains 1-2 of 2) (P08515 1-218, tags or fused parts left off): as above
T9 sequence (P08515 1-218, tags or fused parts left off): as above
Sequence of GST-AF6 PDZ domain fusion protein (af-6 protein AA985-1077; PDZ domain 1 of 1) (P08515 1-218, tags or fused parts left off): as above

Binder | binding result [3] | binding result [4] | binding result [5] | binding result [6] | binding result [7] | binding result [8] | binding result [9] | binding result [10] | binding result [11] | binding result [13] | binding result [14] | binding result [15] | binding result [16] | binding result [17] | binding result [18] | binding result [19] | binding result [20] | binding result [21] | binding result [22] | binding result [23] | further results
Biotin-PKQANGGAYQKPTKQEEFYA [CD138 (syndecan) C-terminal PL peptide AA18L, biotinylated] | no binding | no binding | no binding | no binding | no binding | no binding | no binding | no binding | no binding | no binding | no binding | no binding | no binding | no binding | no binding | no binding | no binding | no binding | no binding | no binding | binding result [1]: binds; binding result [2]: no binding; binding result [12]: no binding; binding result [24]: binds
Biotin-VTSPNKHLGLVTPHKTELV [CD83 C-terminal PL peptide AA47L, biotinylated] | no binding | no binding | no binding | no binding | no binding | no binding | no binding | no binding | no binding | no binding | no binding | no binding | no binding | no binding | no binding | no binding | no binding | no binding | no binding | no binding | binding result [25]: binds; binding result [26]: binds; binding result [27]: no binding; binding result [28]: no binding; binding result [29]: no binding
Biotin-ERLKLEPHEGLLLRFPYAA [CD98 (2F4) C-terminal PL peptide AA15L, biotinylated] | no binding | no binding | no binding | no binding | no binding | no binding | – | no binding | no binding | no binding | no binding | no binding | no binding | no binding | no binding | no binding | no binding | no binding | no binding | no binding | binding result [30]: binds; binding result [2]: no binding; binding result [27]: no binding; binding result [12]: no binding; binding result [28]: no binding; binding result [29]: no binding
Biotin-KDSRPSFVGSSSGHTSTTL [CDW128B (IL8RB) C-terminal PL peptide AA29.2L, biotinylated] | no binding | no binding | no binding | no binding | – | no binding | no binding | no binding | no binding | no binding | no binding | no binding | no binding | no binding | no binding | no binding | no binding | no binding | no binding | no binding | binding result [25]: binds; binding result [31]: binds; binding result [28]: no binding; binding result [29]: no binding; binding result [32]: binds
